From publication doi:10.1101/2025.03.17.643777, “Closed State Structure of the Pore Revealed by Uncoupled Shaker K^+ Channel” (bioRxiv, 2025)

Biological target: the molecule itself
Test: cryo-EM structure; single-particle cryo-EM of the purified channel in 0.02% GDN, 150 mM KCl, 50 mM TRIS pH 7.5; C4 symmetry imposed

B1: Shaker-IR-I384R (natural protein, UniProt P08510 1-655, looked up)
chain: MAAVALREQQLQRNSLDGYGSLPKLSSQDEEGGAGHGFGGGPQHFEPIPHDHDFCERVVINVSGLRFETQLRTLNQFPDTLLGDPARRLRYFDPLRNEYFFDRSRPSFDAILYYYQSGGRLRRPVNVPLDVFSEEIKFYELGDQAINKFREDEGFIKEEERPLPDNEKQRKVWLLFEYPESSQAARVVAIISVFVILLSIVIFCLETLPEFKHYKVFNTTTNGTKIEEDEVPDITDPFFLIETLCIIWFTFELTVRFLACPNKLNFCRDVMNVIDIIAIIPYFITLATVVAEEEDTLNLPKAPVSPQDKSSNQAMSLAILRVIRLVRVFRIFKLSRHSKGLQRLGRTLKASMRELGLLIFFLFIGVVLFSSAVYFAEAGSENSFFKSIPDAFWWAVVTMTTVGYGDMTPVGVWGKIVGSLCAIAGVLTIALPVPVIVSNFNYFYHRETDQEEMQSQNFNHVTSCPYLPGTLGQHMKKSSLSESSSDMMDLDDGVESTPGLTETHPGRSAVAPFLGAQQQQQQPVASSLSMSIDKQLQHPLQQLTQTQLYQQQQQQQQQQQNGFKQQQQQTQQQLQQQQSHTINASAAAATSGSGSSGLTMRHNNALAVSIETDV
notes: built on the Shaker-IR model PDB 7SIP; The C-terminal HRV 3C site was cut to release the channel from the beads, so residues of the site may remain; also called uncoupled channel; completely uncoupled I384R mutant; not shown: eGFP, C-terminal, cleaved; 8xHis, C-terminal, cleaved
stoichiometry N: 4
